Results as given in article PMC7925532.

Target: EGFR Kinase Domain Duplication (EGFR-KDD), eGFP or mCherry fusion (human) (UniProt P00533)
Test: PIE-FCCS (pulsed interleaved excitation fluorescence cross-correlation spectroscopy); live COS-7 cells co-expressing eGFP and mCherry fusions (1:1 plasmids), peripheral membrane, 37 °C, Opti-MEM; stimulated with 2 μg/mL recombinant human EGF; median fraction correlated (ƒc)

“EGFR Kinase Domain Duplication (EGFR-KDD), eGFP or mCherry fusion (from UniProt P00533 25-1038; P00533 688-1210) (receptor)” gave a median cross-correlation value (ƒc) of 0.17.
